From the supplement of paper PMC11316812
± gives the standard deviation of the averaged measurements.

Assays:
MCF7 = assay: percentage of EdU-negative (G0-arrested) nuclei per well, 72 h; higher = more G0 arrest; settings: reference: sequence is the full UniProt precursor, the tested protein was the secreted form or ectodomain
hTERT-HMEC = assay: as above; settings: reference: sequence is the full UniProt precursor, the tested protein was the secreted form or ectodomain
[1] = protein concentration 0.0225 µM
[2] = protein concentration 0.0165825 µM
[3] = protein concentration 0.165825 µM
[4] = protein concentration 0.0305714 µM
[5] = protein concentration 0.305714 µM
[6] = protein concentration 0.0122857 µM
[7] = protein concentration 0.122857 µM
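Note: secreted proteins added to cultured cells, EdU pulse at the end, nuclei found by Hoechst imaging, EdU status from nuclear versus surrounding ring intensity ratio, PBS as neutral control.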

Row | Sequence | percentage of EdU-negative (MCF7; [1]) [%] | percentage of EdU-negative (MCF7; protein concentration 0.225 µM) [%] | percentage of EdU-negative (hTERT-HMEC; [1]) [%] | percentage of EdU-negative (hTERT-HMEC; protein concentration 0.225 µM) [%] | other results
1 | MKGFTATLFLWTLIFPSCSGGGGGKAWPTHVVCSDSGLEVLYQSCDPLQDFGFSVEKCSKQLKSNINIRFGIILREDIKELFLDLALMSQGSSVLNFSYPICEAALPKFSFCGRRKGEQIYYAGPVNNPEFTIPQGEYQVLLELYTEKRSTVACANATIMCS | 28.5 ± 0.69 | 29.008 ± 0.011 | 4.8 ± 0.29 | 6.1 ± 0.31 | –
2 | MKGICSDAILVLATSMWMAFAIDFPLPMASERGQLDKTIVECLKNVNKCWFLSYIKPSEPICGSDQVTYSSDCHLCSKILFEGLNITKLYDGQCENS [P0C7L1] | 23.2 ± 2.9 | 26.1 ± 0.36 | 5.76 ± 1.6 | 7.03 ± 0.23 | –
3 | MKGILVAGITAVLVAAVESLSCVQCNSWEKSCVNSIASECPSHANTSCISSSASSSLETPVRLYQNMFCSAENCSEETHITAFTVHVSAEEHFHFVSQCCQGKECSNTSDALDPPLKNVSSNAECPACYESNGTSCHGKPWKCYEEEQCVFLVAELKNDIESKSLVLKGCSNVSNATCQFLSGENKTLGGVIFRKFECANVNSLTPTSAPTTSHNVGSKASLYLLALASLLLRGLLP [Q6UX82] | 26.8 ± 1.8 | 24 ± 2.7 | 4.63 ± 0.18 | 5.88 ± 0.78 | –
4 | MKGLAAALLVLVCTMALCSCAQVGTNKELCCLVYTSWQIPQKFIVDYSETSPQCPKPGVILLTKRGRQICADPNKKWVQKYISDLKLNA | – | – | – | – | percentage of EdU-negative (MCF7; [2]): 26.2 ± 1.5%; percentage of EdU-negative (MCF7; [3]): 24.6 ± 2.4%; percentage of EdU-negative (hTERT-HMEC; [2]): 5.34 ± 1.1%; percentage of EdU-negative (hTERT-HMEC; [3]): 5.89 ± 1.1%
5 | MKGSIFTLFLFSVLFAISEVRSKESVRLCGLEYIRTVIYICASSRWRRHQEGIPQAQQAETGNSFQLPHKREFSEENPAQNLPKVDASGEDRLWGGQMPTEELWKSKKHSVMSRQDLQTLCCTDGCSMTDLSALC [Q9Y5Q6] | 25.5 ± 2.3 | 27.6 ± 3 | 5.011 ± 0.042 | 4.97 ± 0.86 | –
6 | MKGWGWLALLLGALLGTAWARRSQDLHCGACRALVDELEWEIAQVDPKKTIQMGSFRINPDGSQSVVEVPYARSEAHLTELLEEICDRMKEYGEQIDPSTHRKNYVRVVGRNGESSELDLQGIRIDSDISGTLKFACESIVEEYEDELIEFFSREADNVKDKLCSKRTDLCDHALHISHDEL [Q9Y2B0] | 23.4 ± 3.1 | 25.3 ± 1.3 | 5.14 ± 0.16 | 6.74 ± 0.6 | –
7 | MKHSLNALLIFLIITSAWGGSKGPLDQLEKGGETAQSADPQWEQLNNKNLSMPLLPADFHKENTVTNDWIPEGEEDDDYLDLEKIFSEDDDYIDIVDSLSVSPTDSDVSAGNILQLFHGKSRIQRLNILNAKFAFNLYRVLKDQVNTFDNIFIAPVGISTAMGMISLGLKGETHEQVHSILHFKDFVNASSKYEITTIHNLFRKLTHRLFRRNFGYTLRSVNDLYIQKQFPILLDFKTKVREYYFAEAQIADFSDPAFISKTNNHIMKLTKGLIKDALENIDPATQMMILNCIYFKGSWVNKFPVEMTHNHNFRLNEREVVKVSMMQTKGNFLAANDQELDCDILQLEYVGGISMLIVVPHKMSGMKTLEAQLTPRVVERWQKSMTNRTREVLLPKFKLEKNYNLVESLKLMGIRMLFDKNGNMAGISDQRIAIDLFKHQGTITVNEEGTQATTVTTVGFMPLSTQVRFTVDRPFLFLIYEHRTSCLLFMGRVANPSRS | – | – | – | – | percentage of EdU-negative (MCF7; [4]): 27.6 ± 0.28%; percentage of EdU-negative (MCF7; [5]): 30 ± 1.5%; percentage of EdU-negative (hTERT-HMEC; [4]): 6.41 ± 0.77%; percentage of EdU-negative (hTERT-HMEC; [5]): 22.5 ± 9.3%
8 | MKILILGIFLFLCSTPAWAKEKHYYIGIIETTWDYASDHGEKKLISVDTEHSNIYLQNGPDRIGRLYKKALYLQYTDETFRTTIEKPVWLGFLGPIIKAETGDKVYVHLKNLASRPYTFHSHGITYYKEHEGAIYPDNTTDFQRADDKVYPGEQYTYMLLATEEQSPGEGDGNCVTRIYHSHIDAPKDIASGLIGPLIICKKDSLDKEKEKHIDREFVVMFSVVDENFSWYLEDNIKTYCSEPEKVDKDNEDFQESNRMYSVNGYTFGSLPGLSMCAEDRVKWYLFGMGNEVDVHAAFFHGQALTNKNYRIDTINLFPATLFDAYMVAQNPGEWMLSCQNLNHLKAGLQAFFQVQECNKSSSKDNIRGKHVRHYYIAAEEIIWNYAPSGIDIFTKENLTAPGSDSAVFFEQGTTRIGGSYKKLVYREYTDASFTNRKERGPEEEHLGILGPVIWAEVGDTIRVTFHNKGAYPLSIEPIGVRFNKNNEGTYYSPNYNPQSRSVPPSASHVAPTETFTYEWTVPKEVGPTNADPVCLAKMYYSAVEPTKDIFTGLIGPMKICKKGSLHANGRQKDVDKEFYLFPTVFDENESLLLEDNIRMFTTAPDQVDKEDEDFQESNKMHSMNGFMYGNQPGLTMCKGDSVVWYLFSAGNEADVHGIYFSGNTYLWRGERRDTANLFPQTSLTLHMWPDTEGTFNVECLTTDHYTGGMKQKYTVNQCRRQSEDSTFYLGERTYYIAAVEVEWDYSPQREWEKELHHLQEQNVSNAFLDKGEFYIGSKYKKVVYRQYTDSTFRVPVERKAEEEHLGILGPQLHADVGDKVKIIFKNMATRPYSIHAHGVQTESSTVTPTLPGETLTYVWKIPERSGAGTEDSACIPWAYYSTVDQVKDLYSGLIGPLIVCRRPYLKVFNPRRKLEFALLFLVFDENESWYLDDNIKTYSDHPEKVNKDDEEFIESNKMHAINGRMFGNLQGLTMHVGDEVNWYLMGMGNEIDLHTVHFHGHSFQYKHRGVYSSDVFDIFPGTYQTLEMFPRTPGIWLLHCHVTDHIHAGMETTYTVLQNEDTKSG | – | – | – | – | percentage of EdU-negative (MCF7; [6]): 22.7 ± 3%; percentage of EdU-negative (MCF7; [7]): 29.9 ± 0.94%; percentage of EdU-negative (hTERT-HMEC; [6]): 5.56 ± 0.7%; percentage of EdU-negative (hTERT-HMEC; [7]): 7.89 ± 0.25%
